Marks after values point to notes of the source that are not given here. PEG = not defined here
Experiments:
thrombin [1] = molecular target: thrombin (Homo sapiens, UniProt P00734); assay: Specific antithrombin activity (ATU, WHO I thrombin standard); format: biochemical
Excerpt: The blood levels described above can usually be obtained with bolus doses in the range from about […] to about 1400 ATU/kg, preferably from about 400 ATU/kg to about 1200 ATU/kg and, in particular, from about 600 ATU/kg to about 1000 ATU/kg, of body weight. After adaptation it is possible to treat individuals with chronic renal insufficiency, with an average of three exracorporeal circulations a week, with a dosage of about 200 to about 1000 ATU/kg, preferably of about 200 ATU/kg to about 800 ATU/kg and, in particular, from about 400 ATU/kg to about 600 ATU/kg, of body weight. The abbreviation ATU stands for antithrombin units bas ed on the WHO I thrombin standard.

meizothrombin = molecular target: T1, meizothrombin (Homo sapiens, UniProt P00734); assay: ECT (ecarin clotting time) determination in dialysis patients; format: in vivo
T1 construct: produces meizothrombin by cleavage of the prothromin in the plasma; from tissue; host or cells: citrated venous blood/plasma of human dialysis patients
Experimental: Determination of the ECT (ecarin clotting time) is based on the inhibition of the coagulation activity of meizothrombin. Ecarin, a purified fraction of Echis carinatus venom, produces meizothrombin by cleavage of the prothromin in the plasma. The time until fibrinogen coagulates induced by ecarin is measured.
The sample volume is about 100 μl.
Standard E: [c]=2500 ng/ml (1:20 dilution of standard C with normal human citrated plasma)
The measured results can also be stated as ratio and describe the ratio of the current value to the individual baseline value for a patient before the dialysis with PEG-hirudin.
The accuracy of measurement is +30% to −10%.

thrombin [2] = conditions: human, in vivo, iv, 0.08 mg/kg
Experimental: (§1) 20 male and female patients between 18 and 75 years who must regularly undergo hemodialysis were selected. After an initial treatment with heparin (UFH), each patient was given an intravenous injection, immediately before the first dialysis during PEG-hirudin treatment, of a dose of 0.08 mg/kg of PEG-hirudin with a specific antithrombin activity of 13,354 ATU/mg of protein per kg of body weight. This was followed by hemodialysis with an average duration of 4 hours, 3×a week using a Hemophan low flux membrane in a GFS plus 16 dialyzer. When the dialysis was complete and before the subsequent dialysis sessions, firstly the PEG-hirudin concentrations in the patient's blood were determined. The measured values served as the basis for the amount of the PEG-hirudin doses to be administered immediately before each hemodialysis.
Determination of the anti-IIa activity is based on measurement of the activity remaining after addition of excess thrombin to the sample. Heparin and other non-thrombin serine proteases are neutralized before the assay by adding prothamine [sic] chloride and aprotinin to the sample. […]
The measurement is carried out in an ACL 3000 (incubation time: 120 s; inter-ramp interval: 3 s; delay time: 3 s; aquisition time: 120 s; speed: 600 rpm). The extinction is measured using a 405 nm filter at a constant rotor speed. […]

plasma fibrin formation = assay: APTT determination in dialysis patients; format: in vivo, human
Experimental: The determination of the activated partial thromboplastin time (APTT) is based on plasma fibrin formation induced by addition of a partial thromboplastin (Actin FS) and calicum [sic] ions to the plasma. Ellagic acid is used as activator.
The sample volume is at least 450 μl.
The controls used are control plasma in the normal range, control plasma in the therapeutic range, control plasma in the low therapeutic range and a quality control in the normal range, for example the controls commercially available from Dade citrol 1, Citrol 2, Citrol 3 and Coag Trol N.
The measurement is carried out in an ACL 3000.
The ACL 3000 is a completely automatic, microcomputer-controlled centrifugal analysis system. After the start of the analysis cycle, sample and Actin are pipetted separately into the half-cuvettes of a reaction rotor made of acrylic glass with 20 cuvettes, and are mixed and then incubate d. After the incubation, calcium chloride is pipetted into the cuvettes, mixed and measured. Measurements are carried out while the rotor is rotating. The light source for the nephelometric measurement is a light-emitting diode (LED) whose light beam is directed via a light guide system (γ=660 nm) onto the measuring cuvettes. The scattered light distribution is measured at an angle of 90° to the light source with the aid of a semiconductor sensor located underneath the rotor carrier. The measured results can also be stated as ratio and describe the ratio of the current value to the individual baseline value for a patient before the dialysis with PEG-hirudin.
The accuracy of measurement is +10% to −10%.

vascular complications = assay: Prophylaxis of vascular complications between hemodialysis sessions; format: in vivo, human; conditions: residual concentration in blood between the hemodialysis sessions, 20 patients
Experimental: as §1

[3] = dialysis 04, first with PEG-hirudin (0.08 mg/kg i.v.)
[4] = dialysis 08, PEG-hirudin i.v. before each dialysis
[5] = dialysis 13, PEG-hirudin i.v. before each dialysis
[6] = dialysis 05, PEG-hirudin i.v. before each dialysis
[7] = dialysis 06, PEG-hirudin i.v. before each dialysis
[8] = dialysis 07, PEG-hirudin i.v. before each dialysis
[9] = dialysis 09, PEG-hirudin i.v. before each dialysis
[10] = dialysis 10, PEG-hirudin i.v. before each dialysis
[11] = dialysis 11, PEG-hirudin i.v. before each dialysis
[12] = dialysis 12, PEG-hirudin i.v. before each dialysis

B1: PEG-hirudin: polyethylene glycol conjugates of hirudin; preferably SEQ ID NO:1 polypeptide with PEG residues on lysine 27 and lysine 33 (conjugate)
chain: VVYTDCTESGQNLCLCEGSNVCGQGNK(PEG)CILGSK(PEG)GERNQCVTGEGTPRPQSHNDGDFEEIPEEYLQ
modifications: ends and bridges not checked
Which results are given for B1?
specific antithrombin activity (thrombin [1]; PEG-hirudin given to the patients): 13,354 ATU/mg of protein; specific activity (thrombin [1]; Standard A, 26.6 mg/ml): 11,696 ATU/mg of protein; ECT Bolus 5' after admin. (meizothrombin; [3]): 3.0 [s] [ratio]; ECT Bolus 5' after admin. (meizothrombin; [4]): 3.1 [s] [ratio]; ECT Bolus 5' after admin. (meizothrombin; [5]): 3.1 [s] [ratio]; Anti-IIa After dialysis (thrombin [2]): 818 ng/mL; Anti-IIa Bolus 5' after admin. (thrombin [2]; 5 min): 1298 ng/mL; APTT After dialysis (plasma fibrin formation; [3]): 2.2 ratio; APTT Bolus 5' after admin. (plasma fibrin formation; [3]): 2.5 ratio; APTT Before dialysis (plasma fibrin formation; dialysis 04, first with PEG-hirudin (0.08 mg/kg i.v.), before dose): 1.0 ratio; APTT After dialysis (plasma fibrin formation; [6]): 2.3 ratio; APTT Before dialysis (plasma fibrin formation; [6]): 1.7 ratio; APTT After dialysis (plasma fibrin formation; [7]): 2.3 ratio; APTT Before dialysis (plasma fibrin formation; [7]): 1.9 ratio; APTT After dialysis (plasma fibrin formation; [8]): 2.2 ratio; APTT Before dialysis (plasma fibrin formation; [8]): 1.9 ratio; APTT After dialysis (plasma fibrin formation; [4]): 2.5 ratio; APTT Before dialysis (plasma fibrin formation; [4]): 2.0 ratio; APTT Bolus 5' after admin. (plasma fibrin formation; [4]): 2.6 ratio; APTT After dialysis (plasma fibrin formation; [9]): 2.4 ratio; APTT Before dialysis (plasma fibrin formation; [9]): 2.0 ratio; APTT After dialysis (plasma fibrin formation; [10]): 2.3 ratio; APTT Before dialysis (plasma fibrin formation; [10]): 2.0 ratio; APTT After dialysis (plasma fibrin formation; [11]): 2.3 ratio; APTT Before dialysis (plasma fibrin formation; [11]): 2.0 ratio; APTT After dialysis (plasma fibrin formation; [12]): 2.3 ratio; APTT Before dialysis (plasma fibrin formation; [12]): 2.0 ratio; APTT After dialysis (plasma fibrin formation; [5]): 2.2 ratio; APTT Before dialysis (plasma fibrin formation; [5]): 1.9 ratio; APTT Bolus 5' after admin. (plasma fibrin formation; [5]): 2.5 ratio; prophylactic protection against vascular complications (vascular complications): ensured prophylactic protection against vascular complications

From patent publication US6809076B2, “Use of anticoagulant agents in the extracorporeal treatment of blood” (Abbott GmbH & Co. KG, priority 2000, dated 2004)
